For experiment [1], the target named is T1, synthetic Aβ1-42 (aggregated in the ELISAs) (human, UniProt P05067 672-713).
T1 construct: range 672-713; also called aggregated Aβ1-42; aggregated synthetic Aβ1-42
Briefly: Aβ 1-42 binding ELISA.

The target in experiment [2] is T2, biotinylated DAE peptide (immobilized Aβ peptide) (human, UniProt P05067 672-681, limits assumed, also: biotinylated, site not given here).
T2 construct: domain: Aβ peptide (bio-DAE peptide; bio-DAE10); Immobilized on streptavidin biosensor chips for BIAcore; also called bio-DAE peptide; bio-DAE10
T2 peptide (looked up): DAEFRHDSGY
Kind of experiment: BIAcore (SPR), biotinylated DAE peptide on streptavidin chip, antibody in solution; bivalent model, global analysis.

Experiment [3] addresses T1, synthetic Aβ1-42 (aggregated in the …). Briefly: competitive Aβ1-42 ELISA, competitor biotin conjugated m12A11Cγ2a (FIG. 12). On the technique in general: ELISA stands for enzyme-linked immunosorbent assay.
For experiment [4] the target is unchanged. Briefly: competitive Aβ1-42 ELISA; competitor: biotin conjugated m12A11Cγ2a at a fixed concentration.

No end group written: not given here.

B1: humanized 3D6 (antibody, V domains shown)
VH: EVQLVESGGGLVQPGGSLRLSCAGSGFTFSNYGMSWVRQAPGKGLEWVASIRSGGGRTYYSDNVKGRFTISRENAKNSLYLQMNSLRAEDTAVYYCVRYDHYSGSSDYWGQGTLVTVSS
VL: DVVMTQSPLSLPVTLGQPASISCKSSQSLLDSDGKTYLNWLQQRPGQSPRRLIYLVSKLDSGVPDRFSGSGSGTDFTLKISRVEAEDVGVYYCWQGTHFPRTFGGGTKVEIKR
B1: the half-maximal effective concentration (EC50 (read off the curve)) (commonly the concentration that produces a half-maximal response) in experiment [1] is roughly 0.04 µg/mL.

B2: humanized 12A11 version 1 (antibody, V domains shown)
VH: QVQLVESGGGVVQPGRSLRLSCAFSGFSLSTSGMSVGWIRQAPGKGLEWLAHIWWDDDKYYNPSLKSRLTISKDTSKNTVYLQMNSLRAEDTAVYYCARRTTTADYFAYWGQGTTVTVSS
VL: DVVMTQSPLSLPVTPGEPASISCRSSQSIVHSNGNTYLEWYLQKPGQSPQLLIYKVSNRFSGVPDRFSGSGSGTDFTLKISRVEAEDVGVYYCFQSSHVPLTFGQGTKLEIK
notes: Variable domains only; also called h12A11v1; 12A11v1
For B2, in experiment [2], the Ka came out at 4.29e+07 M⁻¹; the Kd was determined as 23.3 nM; the koff – broadly, the rate constant with which the complex falls apart – came out at 0.00343 s⁻¹; the kon (in general, a measure of how fast the partners come together) came to 147000 M⁻¹ s⁻¹. Further, the “IC50 fold against murine and chimeric 12A11” value in experiment [3] is no more than 2 fold. Moreover, the “IC50 (read off the curve)” value in experiment [4] is roughly 1 µg/mL.

The values above are taken from patent US20060198851A1 (Janssen / Centocor, published 2006).
